Data taken from the DeepSol protein solubility set.

Experiment: soluble on expression in E. coli; label from the status in PepcDB or PDB records

Row | Sequence | soluble on expression in E. coli
1 | QTIKDFLAVAMKKWTAPFEPFQLIDNIYYVGTDGIAVYVIKTSQGLILMDTAMPQSTGMIKDNIAKLGFKVADIKLILNTHAHLDHTGGFAEIKKETGAQLVAGERDKPLLEGGYYPGDEKNEDLAFPAVKVDRAVKEGDRVTLGDTTLTAHATPGHSPGCTSWEMTVKDGKEDREVLFFCSGTVALNRLVGQPTYAGIVDDYRATFAKAKAMKIDVLLGPHPEVYGMQAKRAEMKDGAPNPFIKPGELVTYATSLSEDFDKQLAKQTAALEKK | soluble
2 | MGSDKIHHHHHHMSNLKPDSVIACLDCPNHVQAVLEASMWASIRLQAPIGLLYSVPSLQQKAAVDYSGCLNIDDENTLLDQFTAKEHLSNCELKAQGKRLLHQASSYCEQQRHKIKTYTLHRHEKLDESINYVDDQAQLIVIGHHVTCKSTLSQLIRSSHCPILVTHAPFLPPTSALFAFDNSPTSHKMLNWLCKTPLVRALMIHIVMVSKENSENCDALREAYARLKQAGIKCKKTLLDCRDVTSALTYYQHDNDIGLLMTGAFAQPRLIELLKGSDTKKLLGSTTTPYLLFPKA | not soluble
3 | MGSDKIHHHHHHMADTAPQLKRKREQEAEEAETPSTEEKEAGVGNGTSAPVRLPFSGFRVQKVLRESARDKIIFLHGKVNEDSGDTHGEDAVVILEKTPFQVEHVAQLLTGSPELKLQFSNDIYSTYNLFPPRHLSDIKTTVVYPATEKHLQKYMRQDLRLIRETGDDYRTITLPYLESQSLSIQWVYNILDKKAEADRIVFENPDPSDGFVLIPDLKWNQQQLDDLYLIAICHRRGIRSLRDLTPEHLPLLRNILREGQEAILKRYQVTGDRLRVYLHYLPSYYHLHVHFTALGFEAPGSGVERAHLLAQVIENLECDPKHYQQRTLTFALRTDDPLLQLLQKAQQERN | soluble
4 | MGSDKIHHHHHHMKTYTSNHIVFFSPTHTSAKIARAIGESIGMGRRIEIDLTTDENSSPIEIKDSITIIAVPVYAGRVAPIALQRLRRLKGNNAPAILVAVYGNRDYEDALVELRDETIQLGFTPLAAGAFIGEHSYSRPNMPIAEGRPDVTDLQIAEQFGKDCLTKLEKDETLSDFYLKGNIPYRFVGPSTPAAPVCTEECFACGECIEVCPTHAIALSDEGKIETEITKCIKCCACVKECPNGARVFDTPYTPMLHQKCAARREPELFI | not soluble
5 | MSNPTKISILGRESIIADFGLWRNYVAKDLISDCSSTTYVLVTDTNIGSIYTPSFEEAFRKRAAEITPSPRLLIYNRPPGEVSKSRQTKADIEDWMLSQNPPCGRDTVVIALGGGVIGDLTGFVASTYMRGVRYVQVPTTLLAMVDSSIGGKTAIDTPLGKNLIGAIWQPTKIYIDLEFLETLPVREFINGMAEVIKTAAISSEEEFTALEENAETILKAVRREVTPGEHRFEGTEEILKARILASARHKAYVVSADEREGGLRNLLNWGHSIGHAIEAILTPQILHGECVAIGMVKEAELARHLGILKGVAVSRIVKCLAAYGLPTSLKDARIRKLTAGKHCSVDQLMFNMALDKKNDGPKKKIVLLSAIGTPYETRASVVANEDIRVVLAP | soluble
6 | MGADGGTIPKRCELVKERKKKEKLDKHVKNATKWRNCQLTQLPLKRPVIACRFGKLYNKEDVINSILSKTISKSASASHIKGPKDFVELKLTLNKDFKRGDVKGDDYNDVNQTEFICPITNVPMNGIQSFLVNWQCGCVYSEKAQQEVKSSNCHVCGGPYDATKMVILNPEPEQLELYKLKWEAEKAEKAAAKKDKAKKTAEKMEAAASLAAGSGGEASSVAPGPSGSGVGKHVDLKKKLEIAKLTGGSTSEKKAEKRKANTDIQSDPTTSDTYKKLFTTCEAAKNKTEGHWVTYNPLYY | soluble
7 | MSLGLIVQKFGGTSVGSVEKIQNAANRAIAEKQKGHQVVVVVSAMGKSTDELVSLAKAISDQPSKREMDMLLATGEQVTISLLSMALQEKGYDAVSYTGWQAGIRTEAIHGNARITDIDTSVLADQLEKGKIVIVAGFQGMTEDCEITTLGRGGSDTTAVALAAALKADKCDIYTDVPGVFTTDPRYVKSARKLEGISYDEMLELANLGAGVLHPRAVEFAKNYQVPLEVRSSTETEAGTLIEEESSMEQNLIVRGIAFEDQITRVTIYGLTSGLTTLSTIFTTLAKRNINVDIIIQTQAEDKTGISFSVKTEDADQTVAVLEEYKDALEFEKIETESKLAKVSIVGSGMVSNPGVAAEMFAVLAQKNILIKMVSTSEIKVSTVVSENDMVKAVESLHDAFELSKHPSAVEGHHHHHH | soluble
8 | MGSDKIHHHHHHMQILLANPRGFCAGVDRAISIVERALELFGTPIYVRHEVVHNRYVVNGLRERGAIFIEQIEDVPDGAILIFSAHGVSQAVRNEAKNRDLTVFDATCPLVTKVHMEVARASKKGVEAILIGHAGHPEVEGTMGQYSNADGGMYLVESPDDVWQLQVKDEKNLCFMTQTTLSVDDTYAVIDALRERFPRIIGPRKDDICYATTNRQEAVRHLSDKADVVFVVGSKNSSNSNRLAELAQRAGKAAYLIDSADDIQESWLTGASYVGVTAGASAPDILVQQVIQRLKELGGKVAVEMQGREENIVFEVPKELRVEVKQID | not soluble
9 | MGIPILKLGECLLISIQSELDDHTAVEFQEDLLAKIHETSARGVVIDITSIDFIDSFIAKILGDVVSMSKLMGAKVVVTGIQPAVAITLIELGITFSGVLSAMDLESGLEKLKQELGE | not soluble
10 | MSAIPENANVTVLNKNEKKARELIGKLGLKQIPGIIRVTFRKKDNQIYAIEKPEVFRSAGGNYVVFGEAKVDNFTQKLAAAQQQAQASGIMPSNEDVATKSPEDIQADMQAAAEGSVNAAAEEDDEEGEVDAGDLNKDDIELVVQQTNVSKNQAIKALKAHNGDLVNAIMSLSK | soluble
11 | MGSDKIHHHHHHMTQLANTKFSLNDFELRDGIYFPSDYEQLNNTQHKKTWDAIGKTYYGSQKIEKLADTSPIKQDYTLLTGTPGGTWNKFPLNKSVGSILEIGSGYGRAPLHLSKAKNLRCEKYYGIDISEPLLRRLIKVKQEYNFFPEAEFNLICTSAEILPLEDNSIDLVISNCVFMHIPDAQLRSLLADISRVLKPGGIFVFNHSFHNKSCPSHIIHNFVRKLNPFVRNPVYLKQYSSAEINEMLASAGIQTKCPQYIVEPTEEYAILPETIKGIPVPFAKAINRSLKPSDALKETLAYGFSAYSSQLD | not soluble
12 | MKISIICPLYNAENYIMSLHNKILEQEKPEGTEVEVSYVLTRCKDKTEEMLKNMNLQYTLIEPKDFSHSKTREMMAFKSTGDIIVFISQDVMMKNNFWLKNLVQPIIDGECEASFSRQLCTNNTIEKYIREKNYPEESRVVSKKDINKYGLLTFFYSDASSAVKTSVYKELNGYDNKRLLINEDMYFAEKLIQAGYRIKYCSDSEVYHSHVFTLKSLYERYFDTGVFFRQNSQFLNYKGNKSGKDLAIHVLKRSLEDKNFKVTLNILPNFGARFIGSFLGKKYESLPRSFVMASSMSKKVYSQILEHHHHHH | soluble
13 | MSLVINAPFKVIASKVTAEVLKSVNSKLGSYSTNYATSSEARATNVAVATRSIDGKVVMPGETFSFNEVVGERTRARGYKEAGVIVNQKLESGFGGGVCQVSSTLYNALLRSNIKMTERVHHTFPSSYVPTGLDATVDWGNIDLKFKNTFKYPIYIQGYTGGREVGFNIYSNSELAREGHHHHHH | not soluble
14 | MRHLKSFYVFHVAASSSSYTEAADKLNITHGAVSKQIKQLEQYLSQPLFLKEGRKSVLTAEGELLKTYTKTAFQTLETGVNTLIQEKHQHLEVSCEPTLTMRWLMPRLAAFNDEHRADVR | not soluble
15 | MSHHRIIIIGAGAAGVGMAITLQEFNIKDVLIVEKGTIGHSFKHWPLSTKTITPSFTTNGFGMPDMNAIAKDTSPAFTFNEEHLSGKRYAEYLSLVATHYNLNVKTNTNVSRVTYIDGIYHVSTYYGVYTADYIFIATGDYSFPYHPFSYGLHYSEIQTFTQLKGDAFTIIGGNESAFDAAINLSQTGARISIYTSKTGLKKEDADPSIRLSPYTQQRLRNAIQEGALIEMHVGYQARKITYQNHSYKIHFDNGHIVHSHTEPIIATGFDVTQNPLIEQLFQVRQSEVQLTELDESTKFPNVFLIGATVRHQNAILCYIYKFRARFAVLARIVSLREGLPEDTSLIQSYRQKNMFLDDYSCCDVNCTCLEHHHHHH | not soluble
16 | MGSDKIHHHHHHMKIVKNFRDINTLIPGWGDKMSEVSIFDIWKGTKFGESVLMEFDSLSFSPLGVYSLAYWARMKGFKVSVVDVLDTLKIYLSYAKMIGLGTSIANDIEVIKLGGRIDSGNVSTRIPITEEKVMEKELMKLYPHEDNEKTIVIVLGIEKFLALWCKLLPDILSFLNFMLSFVGEEWMKSFYFINVDLMKDFSFPALSMLEELSTTVVEISKRGPVLHYIVRKALNPEIDSLEGEIHIKELISEIENPIES | not soluble
17 | MSLTNSSNLIDGIEVYVLNNPKDVKPHWVSHFIVPTANELLIKIKTKNGNSGFGVATSYTDIKPIIKPFTNGLQDLVIGEDPFCPEKIYDKIFKLTDTRMSSEKGWSREALIRISAALDIACWDLIGKAANIPLYKLFGGYRNQIPVYVTCAYYRDGKDEIELRDELKKLIDIGHQSFKVKVGGLSIKEDAKRLETIRNEIGNQKDLMIDVNRAWDLKTAIEGVKEFKKFNPIWIEEPVRWEDDRRNLKLLSKQTDIPLSGGESEITIHGCRSMIEEEAIQILQFDCTMFGGFTNGKKLSALCEINHIDIAPHHDCYIHAPLVASSPSGRIVESFDDERDPIQSELFENQHKMSNGWIYLNENPGLGFDISEAALKKFGKLVYKKEGHHHHHH | soluble
18 | EERLKMSTTTSTQDSGLLKVLLPPFEKKNNVKVDVIAVGTGQALKLGEAGDVDVVFVHARKLEDKFVADGFGVNRKDVMYNDFVIVGPKNDPAGIAKAKTAAEALKLLATKGATFISRGDKSGTHTKELDLWKSAGVDPKGNWYVEAGQGMGPVITMATERRAYTLTDRGTYNAFKGAKTDLVILFQGEKGLFNPYGIMAVNPKKFPHVKYDLAMKLIDYVTGPEGLKIISDYKAHG | not soluble
19 | MQANSEEYCELCGSQIRGKGITVSYEGSIITVCNSCYDRIRKHAVIVKADSKKSETRKKATLKPPKMENAELEIVTDYYKIIKTAREQLGISQQQLAQKLKVSENIVKRFESGKLKPTISQARQLEKILGIKLVTPLENNEESEKEFDDTGLTLGDVVNIKEGKK | not soluble
20 | MVLEATVLVIDNSEYSRNGDFPRTRFEAQIDSVEFIFQAKRNSNPENTVGLISGAGANPRVLSTFTAEFGKILAGLHDTQIEGKLHMATALQIAQLTLKHRQNKVQHQRIVAFVCSPISDSRDELIRLAKTLKKNNVAVDIINFGEIEQNTELLDEFIAAVNNPQEETSHLLTVTPGPRLLYENIASSPIILEEGSSGMGAFGGSGGDSDANGTFMDFGVDPSMDPELAMALRLSMEEEQQRQERLRQQQQQQDQPEQSEQPEQHQDK | soluble
21 | MPSPARRSRRRRSSLLNFSFSEVDLEQQRRALEMFEQQMNDQAFAQLIHDHDVQHINNDANQVPAAPNTPPVPVPPPVQQPQASPNASPVSVLRRRRYANPEQERFGDISRRIHNPANQIPAAPNTQPEVPPTVQQPESSSQERASPTSPEITIFSTGLLGLRRRSSARISIRMSATAQTNLPITPIRRRRGRAVSPILEIEFENLSSSSSGTSGDSGNHSSPTNTNDQSFIGDDARTYDQEHVPIDFEGPSTSTGITDRHPRRRNQDGSHGECTMCFEVPVSPLGCNNCLQIIGCEECVDIWYRSSSKPSCPLCRRKWARKPDVSKMSVISVRKQSSLRRSKRRITSK | not soluble
22 | MHHHHHHSSGVDLGTENLYFQSMGLSRVRAVFFDLDNTLIDTAGASRRGMLEVIKLLQSKYHYKEEAEIICDKVQVKLSKECFHPYNTCITDLRTSHWEEAIQETKGGAANRKLAEECYFLWKSTRLQHMTLAEDVKAMLTELRKEVRLLLLTNGDRQTQREKIEACACQSYFDAVVVGGEQREEKPAPSIFYYCCNLLGVQPGDCVMVGDTLETDIQGGLNAGLKATVWINKNGIVPLKSSPVPHYMVSSVLELPALLQSIDCKVSMST | soluble
